From article PMC10786891, “Massively parallel profiling of RNA-targeting CRISPR-Cas13d”
Changes are numbered by the printed parent chain. Names may count otherwise.

Molecular target: T1, EsCas13d, nuclease-dead (Eubacterium siraeum, UniProt B0MS50, R295A;H300A;R849A;H854A)
T1 sequence: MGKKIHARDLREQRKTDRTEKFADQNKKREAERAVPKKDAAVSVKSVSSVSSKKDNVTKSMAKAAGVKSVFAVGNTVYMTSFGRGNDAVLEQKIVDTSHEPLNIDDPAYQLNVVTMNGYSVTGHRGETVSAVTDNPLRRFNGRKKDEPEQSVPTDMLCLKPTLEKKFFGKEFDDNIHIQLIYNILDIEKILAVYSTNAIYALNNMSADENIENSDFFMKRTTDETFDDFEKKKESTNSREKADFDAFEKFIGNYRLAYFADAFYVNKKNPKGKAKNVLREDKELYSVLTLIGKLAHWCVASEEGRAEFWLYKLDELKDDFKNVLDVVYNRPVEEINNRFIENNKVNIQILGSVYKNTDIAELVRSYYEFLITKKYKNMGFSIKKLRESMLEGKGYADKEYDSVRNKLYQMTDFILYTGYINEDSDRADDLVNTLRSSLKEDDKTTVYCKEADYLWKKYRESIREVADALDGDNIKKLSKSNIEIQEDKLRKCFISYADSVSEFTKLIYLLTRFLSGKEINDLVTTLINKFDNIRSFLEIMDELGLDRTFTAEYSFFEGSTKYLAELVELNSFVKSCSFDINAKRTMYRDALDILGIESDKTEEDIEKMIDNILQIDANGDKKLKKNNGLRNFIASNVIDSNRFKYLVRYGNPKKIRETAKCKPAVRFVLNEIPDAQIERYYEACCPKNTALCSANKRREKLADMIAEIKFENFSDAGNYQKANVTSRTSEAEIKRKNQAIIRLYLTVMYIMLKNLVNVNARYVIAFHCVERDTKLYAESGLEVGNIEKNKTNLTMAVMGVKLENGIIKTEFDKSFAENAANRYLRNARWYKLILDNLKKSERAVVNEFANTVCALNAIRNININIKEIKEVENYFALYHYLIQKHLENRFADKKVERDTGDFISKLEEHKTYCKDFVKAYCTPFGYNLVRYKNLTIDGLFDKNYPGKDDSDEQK
Test: crRNA (strand 1, pre-loaded); Mg2+; 40 mM Tris-HCl pH 7.5, 150 mM NaCl, 6 mM MgCl2, 1 mM DTT, 0.1% Tween-20, 0.2 mg/ml BSA; 25 C; 10 min per concentration, then washed
Settings: tags: His6-TwinStrep-SUMO cleaved; N-terminal SNAP kept (SNAP-Surface 488); label: 3' end held by stalled T7 RNA polymerase

B1: target 1 insG 3' of 14,insG 3' of 11 (mixed)
RNA 1: CACCCGUGCAAAAAUGCAGGGGUCUAAAACUGAGCGGAUAACCUCUCUAUGG
RNA 2: GGGAAUGGAUCCACAUCUACGAAUUCGUACCAUAGAGAGGGUGUAUCCGCUCACCGAGAUCGGAAGAGCACACGU
  Kd: 20.7 ± 0.9 nM

B2: target 1 insA 3' of 15,insU 3' of 7 (mixed)
RNA 1: B1 RNA 1
RNA 2: B1 RNA 2 with G39A, G43U, U44A, A45U, U46C, C47U
  Kd: 13.5 ± 0.9 nM

B3: target 1 insC 3' of 17,insG 3' of 6 (mixed)
RNA 1: B1 RNA 1
RNA 2: B1 RNA 2 with A36C, G37A, A38G, G39A, G43U, U44A, A45U, U46C, C48G
  Kd: 43 ± 8 nM

B4: target 1 insC 3' of 8,insG 3' of 2 (mixed)
RNA 1: B1 RNA 1
RNA 2: B1 RNA 2 with G41U, G43A, A45C, U46C, C48G, G49C, C50U, U51C, C52G
  Kd: 21 ± 1.5 nM

B5: target 1 insC 3' of 14,insA 3' of 11 (mixed)
RNA 1: B1 RNA 1
RNA 2: B1 RNA 2 with G39C, G43A
  Kd: 42 ± 5 nM

B6: target 1 insU 3' of 12,insG 3' of 4 (mixed)
RNA 1: B1 RNA 1
RNA 2: B1 RNA 2 with G41U, G43U, U44A, A45U, U46C, C48G, G49C, C50G
  Kd: 4.6 ± 0.17 nM

B7: target 1 insU 3' of 12 (mixed)
RNA 1: B1 RNA 1
RNA 2: GGGAAUGGAUCCACAUCUACGAAUUCGUACCAUAGAGAGGUUUAUCCGCUCACCGAGAUCGGAAGAGCACACGU
  Kd: 7.54 ± 0.28 nM

B8: target 1 C2G,C4A (mixed)
RNA 1: B1 RNA 1
RNA 2: GGGAAUGGAUCCACAUCUACGAAUUCGUACCAUAGAGAGGUUAUCCGAUGACCGAGAUCGGAAGAGCACACGU
  Kd: 6.94 ± 0.32 nM

B9: target 1 insA 3' of 13,insC 3' of 5 (mixed)
RNA 1: B1 RNA 1
RNA 2: B1 RNA 2 with G40A, G43U, U44A, A45U, U46C, C48G, G49C
  Kd: 3.35 ± 0.18 nM

B10: target 1 C7U,U11G (mixed)
RNA 1: B1 RNA 1
RNA 2: B8 RNA 2 with U41G, C45U, A48C, G50C
  Kd: 9.7 ± 0.6 nM

B11: target 1 A9G (mixed)
RNA 1: B1 RNA 1
RNA 2: B8 RNA 2 with A43G, A48C, G50C
  Kd: 13.2 ± 0.4 nM

B12: target 1 insA 3' of 12,insG 3' of 8 (mixed)
RNA 1: B1 RNA 1
RNA 2: B1 RNA 2 with G41A, G43U, U44A, A45U, U46G
  Kd: 32 ± 2.7 nM

B13: target 1 insC 3' of 11,insC 3' of 3 (mixed)
RNA 1: B1 RNA 1
RNA 2: GGGAAUGGAUCCACAUCUACGAAUUCGUACCAUAGAGAGGUCUAUCCGCUCCACCGAGAUCGGAAGAGCACACGU
  Kd: 28.9 ± 2.7 nM

B14: target 1 insG 3' of 20,insA 3' of 7 (mixed)
RNA 1: B1 RNA 1
RNA 2: GGGAAUGGAUCCACAUCUACGAAUUCGUACCAGUAGAGAGGUUAUCACGCUCACCGAGAUCGGAAGAGCACACGU
  Kd: 26.1 ± 3 nM

B15: target 1 insA 3' of 13,insC 3' of 11 (mixed)
RNA 1: B1 RNA 1
RNA 2: B1 RNA 2 with G40A, G43C
  Kd: 7.8 ± 0.6 nM

B16: target 1 U10A,A16U (mixed)
RNA 1: B1 RNA 1
RNA 2: B8 RNA 2 with A36U, U42A, A48C, G50C
  Kd: 42 ± 4 nM

B17: target 1 C6U,U19A (mixed)
RNA 1: B1 RNA 1
RNA 2: B8 RNA 2 with U33A, C46U, A48C, G50C
  Kd: 34.9 ± 2.4 nM

B18: target 1 C4A,G13U (mixed)
RNA 1: B1 RNA 1
RNA 2: B8 RNA 2 with G39U, G50C
  Kd: ~70 nM

B19: target 1 del9,del15 (mixed)
RNA 1: B1 RNA 1
RNA 2: GGGAAUGGAUCCACAUCUACGAAUUCGUACCAUAGAAGGUUUCCGCUCACCGAGAUCGGAAGAGCACACGU
  Kd: 44 ± 6 nM

B20: target 1 insC 3' of 14,insC 3' of 5 (mixed)
RNA 1: B1 RNA 1
RNA 2: B13 RNA 2 with G39C, U41G, C42U, U50C, C51U
  Kd: 75 ± 17 nM

B21: target 1 insA 3' of 21,insG 3' of 19 (mixed)
RNA 1: B1 RNA 1
RNA 2: B1 RNA 2 with U33A, A34U, G40A, U42G, G43U
  Kd: 51 ± 5 nM

B22: target 1 insC 3' of 18,insU 3' of 6 (mixed)
RNA 1: B1 RNA 1
RNA 2: B14 RNA 2 with G33U, U34A, A35C, A47C, C48U
  Kd: 39 ± 4 nM

B23: target 1 insG 3' of 6,insC 3' of 3 (mixed)
RNA 1: B1 RNA 1
RNA 2: B13 RNA 2 with C42U, U43A, A44U, U45C, C47G
  Kd: 13.7 ± 0.8 nM

B24: target 1 G13A,G17U (mixed)
RNA 1: B1 RNA 1
RNA 2: B8 RNA 2 with G35U, G39A, A48C, G50C
  Kd: 28.6 ± 2.7 nM

B25: target 1 insU 3' of 9,insG 3' of 9 (mixed)
RNA 1: B1 RNA 1
RNA 2: B1 RNA 2 with G41U, G43A, A45G
  Kd: 13.2 ± 0.5 nM

B26: target 1 C6U,G17U (mixed)
RNA 1: B1 RNA 1
RNA 2: B8 RNA 2 with G35U, C46U, A48C, G50C
  Kd: 22.3 ± 1.5 nM

B27: target 1 insG 3' of 18,insU 3' of 12 (mixed)
RNA 1: B1 RNA 1
RNA 2: B1 RNA 2 with A36G, G37A, A38G, G39A, G43U
  Kd: 50 ± 6 nM

B28: target 1 insC 3' of 20,insC 3' of 1 (mixed)
RNA 1: B1 RNA 1
RNA 2: B14 RNA 2 with G33C, A47C, C48G, G49C, C50U, U51C, C52A, A53C
  Kd: 8 ± 0.5 nM

B29: target 1 U3A,U8A (mixed)
RNA 1: B1 RNA 1
RNA 2: B8 RNA 2 with U44A, A48C, U49A, G50C
  Kd: 10.6 ± 0.5 nM

B30: target 1 insC 3' of 14,insA 3' of 2 (mixed)
RNA 1: B1 RNA 1
RNA 2: B13 RNA 2 with G39C, U41G, C42U, C52A
  Kd: 52 ± 13 nM
